Experimental data published in patent US9573987B2 (priority 2011, dated 2017).
Values joined by “and” are separate entries in the source; they are usually repeats but may differ in a detail not shown here. Identical values can stand only once. Like-named read-outs stand apart in the source and are kept apart here. Where a SMILES comes first, the peptide text is derived from it. Bridges are numbered along the chain shown (N, C = ends). Where no end group is shown, it is not given here. Side-chain parts run from the residue outwards. [ ]: non-standard residue; d: D form. Phe(4-NH2) = Nc1ccc(C[C@H](N)C(=O)O)cc1; Aib = CC(C)(N)C(=O)O; Sar = CNCC(=O)O

Legend:
IGF-1 receptor [1] = target: T1, IGF-1 receptor (Homo sapiens, UniProt P08069); assay: IGF-1 receptor binding assay (competition, scintillation proximity); parameters: expressed in transfected cells; plasma membrane fragments; settings: for EC50: Table 15, read-out: Receptor Binding IGR-1R EC50
IGF-1 receptor [2] = target: T1, IGF-1 receptor; assay: IGF-1 receptor phosphorylation assay, receptor transfected HEK293 cells; assay type: cell-based; parameters: expressed in transfected cells; host or cells: HEK293; settings: for EC50: Table 15, read-out: Receptor Phosphorylation IGF-IR EC50
Description: (§1) Color development was stopped 5 min later by adding 0.05 ml 1 N HCl. Absorbance at 450 nm was measured on Titertek Multiscan MCC340 (ThermoFisher, Pittsburgh, Pa.).

insulin receptor [3] = target: T2, insulin receptor (Homo sapiens, UniProt P06213); assay: Insulin receptor phosphorylation assay, receptor transfected HEK293 cells; assay type: cell-based; parameters: expressed in transfected cells; host or cells: HEK293; settings: Table 10
Description: as §1

insulin receptor [4] = target: T2, insulin receptor; assay: Insulin receptor binding assay (competition, scintillation proximity); parameters: expressed in transfected cells; plasma membrane fragments
IR-B = IR-B (Homo sapiens, UniProt P06213); assay: In vitro activity of pegylated analogs relative to native insulin at IR-B
IR-A = IR-A (Homo sapiens, UniProt P06213); assay: In vitro activity of pegylated analogs relative to native insulin at IR-A
[5] = tested on: human mammary epithelial cells (HMEC); assay: Human mammary epithelial cells proliferation ([14C]-thymidine); assay type: cell-based
Description: The plate was incubated 4 h at 37° C., 5% CO2 and 90% humidity.

blood glucose = assay: Comparative insulin tolerance test / insulin dose titration in mice
[6] = target: T3, insulin subtype A receptor (IR-A) (Homo sapiens, UniProt P06213); assay: Insulin subtype A receptor phosphorylation, receptor transfected HEK293 cells; assay type: cell-based
T3 construct: expressed in transfected cells; host or cells: HEK293
Description: (§2) Color development was stopped 5 min later by adding 0.05 ml 1 N HCl. Absorbance at 450 nm was measured on Titertek Multiscan MCC340 (ThermoFisher, Pittsburgh, Pa.). […]

[7] = target: insulin subtype B receptor (IR-B) (Homo sapiens, UniProt P06213); assay: Insulin subtype B receptor phosphorylation, receptor transfected HEK293 cells; assay type: cell-based; parameters: expressed in transfected cells; host or cells: HEK293
Description: as §2

[8] = Table 15, read-out: Proliferation HMEC EC50
[9] = Table 15, read-out: Receptor Phosphorylation IR-B EC50

Molecule: CC[C@H](C)[C@H](NC(=O)CN)C(=O)N[C@H](C(=O)N[C@@H](CC(=O)O)C(=O)N[C@@H](CCC(=O)O)C(=O)N[C@@H](C)C(=O)N[C@@H](C)C(=O)N[C@@H](Cc1ccccc1)C(=O)N[C@@H](CCCNC(=N)N)C(=O)N[C@@H](CO)C(=O)N[C@@H](C)C(=O)N[C@@H](CC(=O)O)C(=O)N[C@@H](CC(C)C)C(=O)N[C@@H](CCCNC(=N)N)C(=O)N[C@@H](CCCNC(=N)N)C(=O)N[C@@H](CC(C)C)C(=O)N[C@@H](CCC(=O)O)C(=O)N[C@@H](CCSC)C(=O)N[C@@H](Cc1ccc(NC(=O)[C@@H]2CCCN2C(=O)C(C)(C)N)cc1)C(=O)N[C@@H](C)C(=O)N[C@@H](C)C(N)=O)C(C)C [AiB Pro] (H-GIVDEAAFRSADLRRLEM[Phe(4-NH2)]([Pro-Aib])AA-NH2)
- Half Life (hr) 20% Plasma/PBS: 2.1 h

Molecule: CC[C@H](C)[C@H](NC(=O)CN)C(=O)N[C@H](C(=O)N[C@@H](CC(=O)O)C(=O)N[C@@H](CCC(=O)O)C(=O)N[C@@H](C)C(=O)N[C@@H](C)C(=O)N[C@@H](Cc1ccccc1)C(=O)N[C@@H](CCCNC(=N)N)C(=O)N[C@@H](CO)C(=O)N[C@@H](C)C(=O)N[C@@H](CC(=O)O)C(=O)N[C@@H](CC(C)C)C(=O)N[C@@H](CCCNC(=N)N)C(=O)N[C@@H](CCCNC(=N)N)C(=O)N[C@@H](CC(C)C)C(=O)N[C@@H](CCC(=O)O)C(=O)N[C@@H](CCSC)C(=O)N[C@@H](Cc1ccc(NC(=O)[C@H]2CCCN2C(=O)C(C)(C)N)cc1)C(=O)N[C@@H](C)C(=O)N[C@@H](C)C(N)=O)C(C)C [AiB dPro] (H-GIVDEAAFRSADLRRLEM[Phe(4-NH2)]([dP-Aib])AA-NH2)
- Half Life (hr) 20% Plasma/PBS: 2.2 h

Molecule: CC[C@H](C)[C@H](NC(=O)CN)C(=O)N[C@H](C(=O)N[C@@H](CC(=O)O)C(=O)N[C@@H](CCC(=O)O)C(=O)N[C@H]1CSSC[C@@H]2NC(=O)[C@H](CO)NC(=O)[C@H](CCCNC(=N)N)NC(=O)[C@H](Cc3ccccc3)NC(=O)[C@H](CSSC[C@H](NC(=O)[C@H](CC(C)C)NC(=O)[C@@H](NC(=O)[C@H](CCC(=O)O)NC(=O)[C@@H]3CCCN3C(=O)CN)[C@@H](C)O)C(=O)NCC(=O)N[C@@H](C)C(=O)N[C@@H](CCC(=O)O)C(=O)N[C@@H](CC(C)C)C(=O)N[C@@H](C(C)C)C(=O)N[C@@H](CC(=O)O)C(=O)N[C@@H](C)C(=O)N[C@@H](CC(C)C)C(=O)N[C@@H](Cc3ccc(O)cc3)C(=O)N[C@@H](CC(C)C)C(=O)N[C@@H](C(C)C)C(=O)N[C@H](C(=O)NCC(=O)N[C@@H](CC(=O)O)C(=O)N[C@@H](CCCNC(=N)N)C(=O)NCC(=O)N[C@@H](Cc3ccccc3)C(=O)N[C@@H](Cc3ccc(O)cc3)C(=O)N[C@@H](Cc3ccccc3)C(=O)N[C@@H](CC(N)=O)C(=O)N[C@@H](CCCCN)C(=O)N3CCC[C@H]3C(=O)N[C@H](C(N)=O)[C@@H](C)O)CSSC[C@@H](C(=O)N[C@@H](C)C(N)=O)NC(=O)[C@H](Cc3ccc(O)cc3)NC(=O)[C@H](CCSC)NC(=O)[C@H](CCC(=O)O)NC(=O)[C@H](CC(C)C)NC(=O)[C@H](CCCNC(=N)N)NC(=O)[C@H](CCCNC(=N)N)NC(=O)[C@H](CC(C)C)NC(=O)[C@H](CC(=O)O)NC2=O)NC1=O)C(C)C [IGF-1 A:B(E10Y16L17)]
- IGF-1 Receptor % IGF-1 (in test) (IGF-1 receptor [1]; Table 9): 6.8% and 5.0%
- IGF-1 Receptor % IGF (IGF-1 receptor [2]; Table 10): 13%
- Insulin Receptor % Insulin (insulin receptor [3]): 49.2%
- Ratio (insulin receptor [4]; IGF-1 receptor IC50 over insulin receptor IC50): 11.9
- Insulin Receptor % insulin (in test) (insulin receptor [4]; Table 9): 58.7% and 98.8%
- Insulin Receptor % native insulin activity (0.6 nM) (insulin receptor [4]; Table 9): 90.9% and 117.6%

Molecule: CC[C@H](C)[C@H](NC(=O)CN)C(=O)N[C@H](C(=O)N[C@@H](CC(=O)O)C(=O)N[C@@H](CCC(=O)O)C(=O)N[C@@H](C)C(=O)N[C@@H](C)C(=O)N[C@@H](Cc1ccccc1)C(=O)N[C@@H](CCCNC(=N)N)C(=O)N[C@@H](CO)C(=O)N[C@@H](C)C(=O)N[C@@H](CC(=O)O)C(=O)N[C@@H](CC(C)C)C(=O)N[C@@H](CCCNC(=N)N)C(=O)N[C@@H](CCCNC(=N)N)C(=O)N[C@@H](CC(C)C)C(=O)N[C@@H](CCC(=O)O)C(=O)N[C@@H](CCSC)C(=O)N[C@@H](Cc1ccc(NC(=O)CN(C)C(=O)[C@@H](N)CCCCN)cc1)C(=O)N[C@@H](C)C(=O)N[C@@H](C)C(N)=O)C(C)C [K Sar] (H-GIVDEAAFRSADLRRLEM[Phe(4-NH2)]([Sar-Lys])AA-NH2)
- Half Life (hr) 20% Plasma/PBS: 5.9 h

Molecule: B^1(H5, H10, Y16, L17)25-C^1-A^1 (H8, N18, N21) (GPEHLCGAHLVDALYLVCGDRGFYGYGSSSRRAPQTGIVDECCHRSCDLRRLENYCN) [MIU-35]
- % Insulin Activity IR-B (IR-B): 17.4%
- % Insulin Activity IR-A (IR-A): 61.4%

Molecule: B^1(H5,Y16,L17)25-C^1(K8)-A^1(K14, N18,21) (GPEHLCGAELVDALYLVCGDRGFYGYGSSSRKAPQTGIVDECCFRSCDLKRLENYCN) [MIU-69, two 10K PEG chains, at the N-terminus and at amino acid A14]
- % Insulin Activity IR-B (IR-B): 0.5%
- % Insulin Activity IR-A (IR-A): 1.0%

Molecule: B^1(H5,Y16,L17)25-C^1(K8)-A^1(N18,21) (GPEHLCGAELVDALYLVCGDRGFYGYGSSSRKAPQTGIVDECCFRSCDLRRLENYCN) [MIU-67, two 10K PEG chains, at the N-terminus and at position C8 of the linking moiety]
- % Insulin Activity IR-A (IR-A): 0.2%

Molecule: B^1(H5,Y16,L17)25-C^1-A^1(N18,21) (GPEHLCGAELVDALYLVCGDRGFYGYGSSSRRAPQTGIVDECCFRSCDLRRLENYCN) [MIU-57, single chain analog with 20 kDa PEG linked to the N-terminus of the B chain]
- % Insulin Activity IR-B (IR-B): 1.1%
- % Insulin Activity IR-A (IR-A): 3.1%

Molecule: B^1(H5,Y16,L17, K22)25-C^1(K8)-A^1(N18,21) (GPEHLCGAELVDALYLVCGDKGFYGYGSSSRKAPQTGIVDECCFRSCDLRRLENYCN) [MIU-68, two 10K PEG chains, at the N-terminus and at amino acid B22]
- % Insulin Activity IR-A (IR-A): 0.4%

Molecule: Insulin: native human insulin, 51 amino acid heteroduplex of A chain SEQ ID NO: 1 and B chain SEQ ID NO: 2 [reference compound]
- EC50 [5, 8]: 23.4 nM
- EC50 ([5]; average measured potency at 24, 48, 72 and 96 hours, read-out: EC50): 6.16 nM

Molecule: MIU-58: dimer of two single chain analogs B1(H5,Y16,L17)25-C1-A1(N18,21) linked head to head via 20 kDa PEG (GPEHLCGAELVDALYLVCGDRGFYGYGSSSRRAPQTGIVDECCFRSCDLRRLENYCN; disulfide 18-56, 42-47, 6-43; also: dimer of two chains joined head to head (B1 N-termini) via 20 kDa PEG)
- % Insulin Activity IR-B (IR-B): 5.8%
- blood glucose lowering in insulin tolerance test (result in words) (blood glucose): less potent than the parent compound, but is still active
- % Insulin Activity IR-A (IR-A): 19.7%

B1: … AHLVDALYLVCGDRGFYGYGSSSRRAPQTGIVDECCHRSCDLRRLENYCN (protein, listed as Homo sapiens)
chain: MGSSSSKAPPPSLPSPSRLPGPSDTPILPQEEEEEKGPEHLCGAHLVDALYLVCGDRGFYGYGSSSRRAPQTGIVDECCHRSCDLRRLENYCN
- EC50 (IGF-1 receptor [1]): 216 nM
- EC50 ([6]; Table 15, read-out: Receptor Phosphorylation IR-A- EC50): 0.985 nM
- EC50 (IGF-1 receptor [2]): 26.7 nM
- EC50 [7, 9]: 4.34 nM
- blood glucose lowering in insulin tolerance test (result in words) (blood glucose): potent insulin receptor agonists

B2: DP20LysC: DP20 cleaved at the lysine of CTP to produce a two chain insulin (protein)
chain 1: GPEHLCGAHLVDALYLVCGDRGFYSSSSRAPPPSLPSPSRLPGPSDTPILPQK
chain 2: GIVDECCHRSCDLRRLENYCN
- EC50 (IGF-1 receptor [1]): 50 nM
- in vitro phosphorylation activity at the insulin subtype A receptor (result in words) ([6]; FIGS. 21, 23): potency similar to native insulin
- EC50 (IGF-1 receptor [2]): 13.3 nM
- EC50 [7, 9]: 1.33 nM
- EC50 ([7]; read-out: EC50 values (in nM), phosphorylation at the insulin subtype B receptor, experiment of FIG. 18B): 2.44 ± 1.3 nM
- EC50 [5, 8]: 8.19 nM
